{"source": "patent US20250092160A1", "key": {"[1]": {"target": "SARS-CoV-2 South African Δ3 B.1.351 variant (pseudovirus RVP-724) (SARS-CoV-2) (UniProt P0DTC2)", "assay": "cell-based or functional assay"}, "[2]": {"target": "SARS-CoV-2 N439K variant (pseudovirus RVP-703) (SARS-CoV-2) (UniProt P0DTC2)", "assay": "cell-based or functional assay"}}, "note": "Where “and” joins values, the source holds several entries; their conditions need not be identical. Equal entries are not always repeated.", "data": [{"substance": "REGN10987 (antibody)", "values": [{"measurement": "EC50 (pM) Neutralization, South Africa B.1.351", "setting": "[1]", "value": "2.48 pM and 2.37 pM"}, {"measurement": "EC50 (pM) Neutralization, N439K", "setting": "[2]", "value": "2260 pM and 2220 pM"}, {"measurement": "pseudovirus neutralization, potency against REGN10933", "setting": "[2]", "value": 1000, "unit": "fold"}]}]}
